In the Human Domainome abundance scans (Beltran et al. 2025):
± gives the uncertainty stated by the source.

B1: F-BAR and double SH3 domains protein 1, residues 467 to 528; numbered along this chain, Q86WN1 (parent)
chain: RALPCPAHVVFRYQAGREDELTITEGEWLEVIEEGDADEWVKARNQHGEVGFVPERYLNFPD

Variants of: B1
Assay: abundance fitness (aPCA) (normalised: wild type 0, dead -1); higher = more abundant; growth selection in yeast, the domain comes from the species named
Details: Homo sapiens

A2C and A2V are within error of each other in abundance fitness: 0.031 ± 0.061 for the first, 0.128 ± 0.055 for the second.

First: A2H
Second: A2Y
The abundance fitness of the first is lower: -0.256 ± 0.13 for the first, 0.389 ± 0.14 for the second.

A2N and A2T are within error of each other in abundance fitness: 0.147 ± 0.12 for the first, 0.184 ± 0.069 for the second.

First: A2L
Second: A2E
The abundance fitness of the first is lower: -0.007 ± 0.045 for the first, 0.196 ± 0.083 for the second.

A2Q and A2G are within error of each other in abundance fitness: 0.007 ± 0.097 for the first, 0.133 ± 0.043 for the second.

Compared with A2R, A2W is lower in abundance fitness: 0.053 ± 0.039 for the first, -0.146 ± 0.061 for the second.

A2D and A2K are within error of each other in abundance fitness: 0.153 ± 0.095 for the first, 0.169 ± 0.069 for the second.

A2F and A2M are within error of each other in abundance fitness: 0.144 ± 0.12 for the first, 0.104 ± 0.085 for the second.

H8S and H8F are within error of each other in abundance fitness: -0.479 ± 0.07 for the first, -0.591 ± 0.12 for the second.

Going from H8T to H8A, the abundance fitness falls from -0.213 ± 0.067 to -0.497 ± 0.073.

Compared with H8V, H8P is lower in abundance fitness: -0.349 ± 0.068 for the first, -0.905 ± 0.14 for the second.

Going from H8L to H8G, the abundance fitness falls from -0.202 ± 0.044 to -0.651 ± 0.088.

Compared with H8W, H8N is lower in abundance fitness: -0.041 ± 0.12 for the first, -0.392 ± 0.11 for the second.

H8D and H8M are within error of each other in abundance fitness: -0.282 ± 0.11 for the first, -0.245 ± 0.084 for the second.

H8C and H8Q are within error of each other in abundance fitness: -0.28 ± 0.11 for the first, -0.168 ± 0.077 for the second.

Going from H8K to R12I, the abundance fitness falls from -0.257 ± 0.072 to -0.792 ± 0.17.

Going from R12W to R12S, the abundance fitness rises from -0.455 ± 0.096 to 0.133 ± 0.048.

R12C and R12P are within error of each other in abundance fitness: -0.056 ± 0.077 for the first, -0.102 ± 0.072 for the second.

Compared with R12T, R12V is lower in abundance fitness: 0.023 ± 0.097 for the first, -0.367 ± 0.061 for the second.

R12N and R12Q are within error of each other in abundance fitness: 0.033 ± 0.078 for the first, -0.078 ± 0.075 for the second.

R12E and R12D are within error of each other in abundance fitness: 0.17 ± 0.12 for the first, -0.024 ± 0.097 for the second.

First: R12F
Second: R12L
The abundance fitness of the first is higher: -0.01 ± 0.07 for the first, -0.265 ± 0.046 for the second.

R12A and R12G are within error of each other in abundance fitness: 0.056 ± 0.055 for the first, 0.085 ± 0.043 for the second.

Going from R12H to P4Q, the abundance fitness falls from -0.188 ± 0.12 to -0.553 ± 0.13.

P4L and P4Y are within error of each other in abundance fitness: -0.567 ± 0.076 for the first, -0.477 ± 0.15 for the second.

P4R and P4F are within error of each other in abundance fitness: -0.505 ± 0.076 for the first, -0.451 ± 0.087 for the second.

Going from P4W to P4N, the abundance fitness rises from -0.664 ± 0.11 to -0.194 ± 0.17.

P4A and P4H are within error of each other in abundance fitness: -0.496 ± 0.11 for the first, -0.472 ± 0.13 for the second.

P4E and P4T are within error of each other in abundance fitness: -0.285 ± 0.12 for the first, -0.136 ± 0.093 for the second.

P4G and P4M are within error of each other in abundance fitness: -0.333 ± 0.068 for the first, -0.247 ± 0.11 for the second.

P4I and P4C are within error of each other in abundance fitness: -0.381 ± 0.11 for the first, -0.346 ± 0.15 for the second.

P4K and Q14A are within error of each other in abundance fitness: -0.359 ± 0.15 for the first, -0.153 ± 0.063 for the second.

Going from Q14C to Q14F, the abundance fitness rises from -0.363 ± 0.081 to -0.018 ± 0.056.

First: Q14D
Second: Q14G
The abundance fitness of the first is higher: 0.014 ± 0.086 for the first, -0.377 ± 0.07 for the second.

Q14E and Q14H are within error of each other in abundance fitness: -0.024 ± 0.064 for the first, -0.071 ± 0.072 for the second.

R1D and R1G are within error of each other in abundance fitness: -0.298 ± 0.19 for the first, -0.238 ± 0.057 for the second.

R1L and R1C are within error of each other in abundance fitness: -0.47 ± 0.1 for the first, -0.544 ± 0.091 for the second.

Going from R1K to R1I, the abundance fitness rises from -0.339 ± 0.094 to -0.052 ± 0.11.

R1M and R1Q are within error of each other in abundance fitness: -0.548 ± 0.24 for the first, -0.294 ± 0.22 for the second.

R1H and R1F are within error of each other in abundance fitness: -0.2 ± 0.16 for the first, 0.053 ± 0.099 for the second.

R1E and R1V are within error of each other in abundance fitness: -0.431 ± 0.1 for the first, -0.519 ± 0.08 for the second.

R1N and R1S are within error of each other in abundance fitness: 0.002 ± 0.099 for the first, -0.153 ± 0.058 for the second.

Going from R1Y to A7C, the abundance fitness falls from -0.105 ± 0.081 to -0.441 ± 0.21.

A7S and A7Y are within error of each other in abundance fitness: -0.631 ± 0.074 for the first, -0.528 ± 0.21 for the second.

A7N and A7E are within error of each other in abundance fitness: -0.521 ± 0.19 for the first, -0.742 ± 0.32 for the second.

A7W and A7T are within error of each other in abundance fitness: -0.98 ± 0.23 for the first, -0.917 ± 0.18 for the second.

Going from A7D to A7V, the abundance fitness rises from -0.976 ± 0.34 to -0.454 ± 0.057.

A7P and A7M are within error of each other in abundance fitness: -0.788 ± 0.12 for the first, -0.938 ± 0.15 for the second.

Compared with A7L, A7R is higher in abundance fitness: -0.866 ± 0.086 for the first, -0.617 ± 0.067 for the second.

First: A7G
Second: A7K
The abundance fitness of the first is higher: -0.328 ± 0.061 for the first, -1.05 ± 0.18 for the second.

First: A7Q
Second: C5Y
The abundance fitness of the first is lower: -0.854 ± 0.15 for the first, -0.215 ± 0.077 for the second.

Compared with C5F, C5L is lower in abundance fitness: -0.294 ± 0.12 for the first, -0.538 ± 0.067 for the second.

C5I and C5R are within error of each other in abundance fitness: -0.419 ± 0.1 for the first, -0.431 ± 0.062 for the second.

Going from C5M to C5G, the abundance fitness rises from -0.595 ± 0.1 to -0.386 ± 0.094.

Going from C5D to C5Q, the abundance fitness rises from -1.04 ± 0.4 to -0.171 ± 0.09.

Going from C5P to C5H, the abundance fitness rises from -0.857 ± 0.15 to -0.145 ± 0.42.

C5A and C5W are within error of each other in abundance fitness: -0.479 ± 0.24 for the first, -0.399 ± 0.091 for the second.

V9L and V9R are within error of each other in abundance fitness: -0.835 ± 0.075 for the first, -0.788 ± 0.081 for the second.

V9K and V9D are within error of each other in abundance fitness: -0.598 ± 0.11 for the first, -0.764 ± 0.27 for the second.

First: V9Y
Second: V9C
The abundance fitness of the first is lower: -0.631 ± 0.15 for the first, -0.32 ± 0.15 for the second.

V9P and V9S are within error of each other in abundance fitness: -0.781 ± 0.18 for the first, -0.752 ± 0.09 for the second.

V9I and V9M are within error of each other in abundance fitness: -0.795 ± 0.14 for the first, -1.01 ± 0.2 for the second.

V9E and V9Q are within error of each other in abundance fitness: -0.411 ± 0.12 for the first, -0.607 ± 0.13 for the second.

Going from V9A to V9T, the abundance fitness falls from 0.002 ± 0.058 to -0.531 ± 0.1.

V9H and V9W are within error of each other in abundance fitness: -0.85 ± 0.22 for the first, -0.902 ± 0.13 for the second.

V9G and V10Q are within error of each other in abundance fitness: -0.602 ± 0.081 for the first, -0.733 ± 0.29 for the second.

V10I and V10R are within error of each other in abundance fitness: -0.021 ± 0.064 for the first, -0.098 ± 0.057 for the second.

First: V10E
Second: V10M
The abundance fitness of the first is lower: -0.247 ± 0.11 for the first, 0.005 ± 0.079 for the second.

First: V10P
Second: V10L
The abundance fitness of the first is lower: -1.05 ± 0.25 for the first, -0.165 ± 0.05 for the second.

V10H and V10T are within error of each other in abundance fitness: -0.158 ± 0.23 for the first, -0.167 ± 0.099 for the second.

Going from V10C to V10W, the abundance fitness falls from -0.037 ± 0.1 to -0.236 ± 0.08.

V10Y and V10D are within error of each other in abundance fitness: -0.118 ± 0.1 for the first, -0.109 ± 0.13 for the second.

V10G and V10S are within error of each other in abundance fitness: -0.179 ± 0.049 for the first, -0.105 ± 0.073 for the second.

V10N and V10K are within error of each other in abundance fitness: -0.336 ± 0.24 for the first, -0.094 ± 0.085 for the second.

Going from V10F to L3S, the abundance fitness rises from -0.465 ± 0.14 to -0.193 ± 0.057.

L3N and L3P are within error of each other in abundance fitness: -0.127 ± 0.082 for the first, -0.242 ± 0.093 for the second.

Going from L3W to L3H, the abundance fitness rises from -0.53 ± 0.065 to -0.206 ± 0.091.

Going from L3V to L3G, the abundance fitness falls from -0.439 ± 0.062 to -0.609 ± 0.058.

L3K and L3Q are within error of each other in abundance fitness: -0.276 ± 0.1 for the first, -0.362 ± 0.17 for the second.

Going from L3E to L3R, the abundance fitness rises from -0.503 ± 0.12 to -0.333 ± 0.044.

First: L3Y
Second: L3D
The abundance fitness of the first is higher: 0.124 ± 0.075 for the first, -0.486 ± 0.092 for the second.

Compared with L3F, L3C is lower in abundance fitness: 0.05 ± 0.061 for the first, -0.121 ± 0.063 for the second.

L3M and L3I are within error of each other in abundance fitness: -0.121 ± 0.085 for the first, -0.058 ± 0.093 for the second.

L3A gave an abundance fitness of -0.693 ± 0.24.
